Target: ATP binding cassette protein E1 (ABCE1), endogenous in 293T/17 cells (human (endogenous in 293T/17)) (UniProt P61221)
Experiment: proximity ligation

Substance “FIV Gag, wild type, expressed from the FIV pro- env- provirus (natural protein)” has a Gag-ABCE1 PLA spots per cell (PLA spots per cell) of 34.9.

— publication doi:10.1101/183848
